Test results as given in patent US20170368168A1 (AGENUS, published 2017).

Experiments:
[1] = target: T1, recombinant human TIM-4 His (R&D, Cat#2929-TM) (human, UniProt Q96H15 25-315); assay: Luminex suspension array, antigen coupled to beads
T1 construct: also called rhTIM-4 His
T1 sequence (looked up): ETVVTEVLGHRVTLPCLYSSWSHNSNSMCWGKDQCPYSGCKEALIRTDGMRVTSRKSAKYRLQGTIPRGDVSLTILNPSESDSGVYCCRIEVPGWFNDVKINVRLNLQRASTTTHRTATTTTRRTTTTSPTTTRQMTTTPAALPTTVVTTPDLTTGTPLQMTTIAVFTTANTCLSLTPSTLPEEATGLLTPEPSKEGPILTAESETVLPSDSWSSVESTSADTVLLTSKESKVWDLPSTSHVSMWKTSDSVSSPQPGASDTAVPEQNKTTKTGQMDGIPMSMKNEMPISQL

[2] = target: T2, recombinant human TIM-3 Fc (R&D Systems, Cat#2365-TM) (human, UniProt P01857-1 100-330 = IgG part); assay: Luminex suspension array, antigen coupled to beads
T2 construct: also called rhTIM-3 Fc; human TIM-3/Fc chimera

[3] = target: T3, recombinant human TIM-1 His (R&D Systems, Cat#1750-TM) (human, UniProt Q96D42 21-295); assay: Luminex suspension array, antigen coupled to beads
T3 construct: also called rhTIM-1 His
T3 sequence (looked up): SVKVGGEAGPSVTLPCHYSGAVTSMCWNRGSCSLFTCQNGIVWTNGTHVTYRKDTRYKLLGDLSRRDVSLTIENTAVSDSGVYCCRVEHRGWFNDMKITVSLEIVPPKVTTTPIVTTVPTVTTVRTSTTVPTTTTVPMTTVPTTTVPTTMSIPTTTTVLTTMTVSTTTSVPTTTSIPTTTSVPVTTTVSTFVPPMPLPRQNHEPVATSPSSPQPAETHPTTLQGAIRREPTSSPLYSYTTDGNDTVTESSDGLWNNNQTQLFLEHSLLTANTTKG

[4] = target: T4, human TIM-3 expressed on cells (human, UniProt Q8TDQ0 22-301); assay: flow cytometry, 1624-5 cells expressing human TIM-3
T4 construct: also called T cell immunoglobulin and mucin domain-3; HAVCR2
T4 sequence: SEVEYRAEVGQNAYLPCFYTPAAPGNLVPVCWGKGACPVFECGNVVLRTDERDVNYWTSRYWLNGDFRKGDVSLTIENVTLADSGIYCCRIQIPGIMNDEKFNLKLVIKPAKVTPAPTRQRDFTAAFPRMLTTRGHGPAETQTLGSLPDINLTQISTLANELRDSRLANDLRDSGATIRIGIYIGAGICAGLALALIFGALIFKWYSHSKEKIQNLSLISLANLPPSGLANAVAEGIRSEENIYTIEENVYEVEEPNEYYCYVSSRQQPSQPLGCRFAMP

binding result [2]: binds
binding result [4]: binds
B1: pab2088 (IgG1) (antibody, V domains shown)
VH: not shown
VL: DIQMTQSPSSLSASVGDRVTITCRASQGISNYLAWYQQKPGKVPKLLIYAASTLQSGVPSRFSGSGSGTDFTLTISRLEPEDFAVYYCQQYGSSPLTFGGGTKVEIK
binding result [1]: no binding (tested: 10 ng/ml, 100 ng/ml, and 1000 ng/ml)
binding result [3]: no binding (tested: 10 ng/ml, 100 ng/ml, and 1000 ng/ml)
